B1: Cullin-1 (Arabidopsis thaliana (Mouse-ear cress)), Q94AH6 (parent)
chain: MERKTIDLEQGWDYMQTGITKLKRILEGLNEPAFDSEQYMMLYTTIYNMCTQKPPHDYSQQLYDKYREAFEEYINSTVLPALREKHDEFMLRELFKRWSNHKVMVRWLSRFFYYLDRYFIARRSLPPLNEVGLTCFRDLVYNELHSKVKQAVIALVDKEREGEQIDRALLKNVLDIYVEIGMGQMERYEEDFESFMLQDTSSYYSRKASSWIQEDSCPDYMLKSEECLKKERERVAHYLHSSSEPKLVEKVQHELLVVFASQLLEKEHSGCRALLRDDKVDDLSRMYRLYHKILRGLEPVANIFKQHVTAEGNALVQQAEDTATNQVANTASVQEQVLIRKVIELHDKYMVYVTECFQNHTLFHKALKEAFEIFCNKTVAGSSSAELLATFCDNILKKGGSEKLSDEAIEDTLEKVVKLLAYISDKDLFAEFYRKKLARRLLFDRSANDDHERSILTKLKQQCGGQFTSKMEGMVTDLTLARENQNSFEDYLGSNPAANPGIDLTVTVLTTGFWPSYKSFDINLPSEMIKCVEVFKGFYETKTKHRKLTWIYSLGTCHINGKFDQKAIELIVSTYQAAVLLLFNTTDKLSYTEILAQLNLSHEDLVRLLHSLSCAKYKILLKEPNTKTVSQNDAFEFNSKFTDRMRRIKIPLPPVDERKKVVEDVDKDRRYAIDAAIVRIMKSRKVLGHQQLVSECVEQLSRMFKPDIKAIKKRMEDLITRDYLERDKENPNMFRYLA

Key:
[1] = variants of: B1; conditions: with skp1a_arath SKP1A
[2] = variants of: B1; conditions: with iaa7_arath IAA7, Q38825
Sequence of iaa7_arath IAA7, Q38825 (Q38825 whole entry): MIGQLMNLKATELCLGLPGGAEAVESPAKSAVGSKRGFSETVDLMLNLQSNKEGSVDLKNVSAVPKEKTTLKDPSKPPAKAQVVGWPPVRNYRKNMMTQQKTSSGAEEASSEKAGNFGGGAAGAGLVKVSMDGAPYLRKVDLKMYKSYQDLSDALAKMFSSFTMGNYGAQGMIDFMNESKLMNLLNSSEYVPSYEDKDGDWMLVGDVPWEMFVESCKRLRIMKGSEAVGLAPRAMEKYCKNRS

Variant	effect of a mutation on the interaction [1]	effect of a mutation on the interaction [2]
F112I	decreasing interaction	decreasing interaction
F112V	decreasing interaction	decreasing interaction

From IntAct's records for PubMed 12839993
